{"source": "patent US10239923B2", "about": "“Specific amyloid beta binding peptides and the use of same for treating and diagnosing alzheimer's dementia” (Forschungszentrum Juelich GmbH, priority 2015, dated 2019)", "note": "Square brackets hold non-standard residues; d marks the D form.", "data": [{"target": "T1, Aβ1-42 monomers versus Aβ1-42 oligomers and fibrils (biotinylated, D-enantiomeric, immobilized) (Homo sapiens, UniProt P05067)", "T1 construct": "biotinylated, D-enantiomeric Aβ1-42 monomers", "T1 sequence (P05067 672-713)": "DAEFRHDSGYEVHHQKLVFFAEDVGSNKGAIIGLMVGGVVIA", "assay": "Monoclonal phage ELISA", "assay_type": "binding", "conditions": "individual phage clones; species immobilized at 320 nM; absorption at 450 nm normalized with 6E10 control; higher = more monomer-specific", "excerpt": "The specificity of the peptide results from the difference in % of the absorption values for the target molecule or the bait (for example A beta monomer) and the normalized absorption values for the competitors (for example A beta oligomers and fibrils) in the monoclonal phage ELISA.\nThe absorption values then constitute the affinity of individual phage clones for a particular immobilized A beta species. Here, the specificity is not dependent on the strength of the affinity, but instead only on the difference of the affinities between the species. […] The terms “competitors” and “target molecule” or “bait” are defined as specified below.\nA method for normalizing the obtained values should therefore be performed. From all absorption values of the individual phage clone in the monoclonal phage ELISA, the values of the phage antibodies tested for cross-reaction can be used as background. This occurs in accordance with the previously immobilized species. The signal values of the phage antibody from the reaction trays with immobilized Aβ1-42 oligomers for this purpose can be removed from the signal values of the individual phage clone from the reaction trays with immobilized Aβ1-42 oligomers. A similar process is then carried out for Aβ1-42 monomers. In this way, a possible background signal of the phage antibody can initially be calculated from the signals of the individual phage clone. […] Only in this way is an equal interpretation of the results particularly in respect of the assessment of the specificity of the individual phage clone possible (see FIG. 2).\nThe affinity of individual phage clones with respect to the target molecule and the competitors was examined by means of ELISA. For this purpose, all three species were immobilized in biotinylated form on a polystyrene surface at streptavidin bound thereon. Since, during the panning rounds, oligomers and fibrils were added at the same time as competitors, these two species were immobilized in the monoclonal phage ELISA, likewise mixed. […] The streptavidin-coated microtiter plates were pre-washed as specified by the manufacturer. […] For immobilization, 100 μl were used per reaction tray and were incubated for 15 minutes at room temperature. After having washed the entire plate(s) twice with 150 μl 1×TBS per reaction tray, a blocking step with 150 μl 1×TBS/0.1% (v/v) Tween-20/1% (w/v) BSA was performed for an hour at room temperature. Three washing steps with 150 μl 1×TBS/0.1% (v/v) Tween-20 then followed per reaction tray. The amplified individual phage clones were mixed 1:1 with 1× TBS/1% (w/v) BSA. The antibody 6E10 was diluted 1:10,000 in 1×TBS/0.1% (v/v) Tween-20. […] After washing five times with 150 μl 1×TBS/0.1% (v/v) Tween-20 per reaction tray, 200 μl 1×TBS/0.1% (v/v) Tween-20 were placed in each reaction tray, and the plate(s) incubated for one hour at room temperature. The solutions were removed and replaced as follows: In all reaction trays that had been incubated previously with individual phage clone dilutions or the batch without phages, 100 μl of a phage antibody diluted 1:5,000 in 1×TBS/0.1% (v/v) Tween-20 were now added. The enzyme horseradish peroxidase (HRP) was coupled to this antibody and later served for the conversion of a substrate (TMB). […] At the same time, 100 μl of a second antibody diluted 1:1,000 in 1×TBS/0.1% (v/v) Tween-20 were now added to all reaction trays that had been previously incubated with the dilution of the 6E10 antibody, said second antibody being able to identify and bind to the 6E10 antibody originating from mice. This antibody is also HRP-coupled and thus allows a quantification of the binding of the first antibody to the immobilized target molecules or the plastics surface of the reaction tray. After one hour of incubation at room temperature, the plate(s) was/were washed 10 times with 150 μl 1×TBS/0.1% (v/v) Tween-20 per reaction tray. The signal was detected by adding the substrate 3,3′,5,5′-tetramethylbenzidine (TMB). […]", "units": {"Difference in signal strength between Aβ1-42 monomers (100%) and Aβ1-42 oligomers and fibrils": "%"}, "values": [{"sequence": "LSMNITTVHRWH (H-[dL][dS][dM][dN][dI][dT][dT][dV][dH][dR][dW][dH]-NH2; SMILES CC[C@@H](C)[C@@H](NC(=O)[C@@H](CC(N)=O)NC(=O)[C@@H](CCSC)NC(=O)[C@@H](CO)NC(=O)[C@H](N)CC(C)C)C(=O)N[C@@H](C(=O)N[C@@H](C(=O)N[C@@H](C(=O)N[C@H](Cc1c[nH]cn1)C(=O)N[C@H](CCCNC(=N)N)C(=O)N[C@H](Cc1c[nH]c2ccccc12)C(=O)N[C@H](Cc1c[nH]cn1)C(N)=O)C(C)C)[C@H](C)O)[C@H](C)O) [Mosd11]", "Difference in signal strength between Aβ1-42 monomers (100%) and Aβ1-42 oligomers and fibrils": 57.671}, {"sequence": "VHWDFRQWWQPS (H-[dV][dH][dW][dD][dF][dR][dQ][dW][dW][dQ][dP][dS]-NH2; SMILES CC(C)[C@@H](N)C(=O)N[C@H](Cc1c[nH]cn1)C(=O)N[C@H](Cc1c[nH]c2ccccc12)C(=O)N[C@H](CC(=O)O)C(=O)N[C@H](Cc1ccccc1)C(=O)N[C@H](CCCNC(=N)N)C(=O)N[C@H](CCC(N)=O)C(=O)N[C@H](Cc1c[nH]c2ccccc12)C(=O)N[C@H](Cc1c[nH]c2ccccc12)C(=O)N[C@H](CCC(N)=O)C(=O)N1CCC[C@@H]1C(=O)N[C@H](CO)C(N)=O) [Mosd20]", "Difference in signal strength between Aβ1-42 monomers (100%) and Aβ1-42 oligomers and fibrils": 45.718}, {"sequence": "DLRFSSLWKLSH (H-[dD][dL][dR][dF][dS][dS][dL][dW][dK][dL][dS][dH]-NH2; SMILES CC(C)C[C@@H](NC(=O)[C@H](N)CC(=O)O)C(=O)N[C@H](CCCNC(=N)N)C(=O)N[C@H](Cc1ccccc1)C(=O)N[C@H](CO)C(=O)N[C@H](CO)C(=O)N[C@H](CC(C)C)C(=O)N[C@H](Cc1c[nH]c2ccccc12)C(=O)N[C@H](CCCCN)C(=O)N[C@H](CC(C)C)C(=O)N[C@H](CO)C(=O)N[C@H](Cc1c[nH]cn1)C(N)=O) [Mosd19]", "Difference in signal strength between Aβ1-42 monomers (100%) and Aβ1-42 oligomers and fibrils": 50.299}, {"sequence": "FSHSHHTWFTWN (H-[dF][dS][dH][dS][dH][dH][dT][dW][dF][dT][dW][dN]-NH2; SMILES C[C@H](O)[C@@H](NC(=O)[C@@H](Cc1ccccc1)NC(=O)[C@@H](Cc1c[nH]c2ccccc12)NC(=O)[C@H](NC(=O)[C@@H](Cc1c[nH]cn1)NC(=O)[C@@H](Cc1c[nH]cn1)NC(=O)[C@@H](CO)NC(=O)[C@@H](Cc1c[nH]cn1)NC(=O)[C@@H](CO)NC(=O)[C@H](N)Cc1ccccc1)[C@H](C)O)C(=O)N[C@H](Cc1c[nH]c2ccccc12)C(=O)N[C@H](CC(N)=O)C(N)=O) [Mosd7]", "Difference in signal strength between Aβ1-42 monomers (100%) and Aβ1-42 oligomers and fibrils": 57.960}, {"sequence": "EHWDFGQWWQQS (H-[dE][dH][dW][dD][dF]G[dQ][dW][dW][dQ][dQ][dS]-NH2; SMILES NC(=O)CC[C@@H](NC(=O)CNC(=O)[C@@H](Cc1ccccc1)NC(=O)[C@@H](CC(=O)O)NC(=O)[C@@H](Cc1c[nH]c2ccccc12)NC(=O)[C@@H](Cc1c[nH]cn1)NC(=O)[C@H](N)CCC(=O)O)C(=O)N[C@H](Cc1c[nH]c2ccccc12)C(=O)N[C@H](Cc1c[nH]c2ccccc12)C(=O)N[C@H](CCC(N)=O)C(=O)N[C@H](CCC(N)=O)C(=O)N[C@H](CO)C(N)=O) [Mosd14]", "Difference in signal strength between Aβ1-42 monomers (100%) and Aβ1-42 oligomers and fibrils": 56.526}, {"sequence": "HFWSWTSLSMTR (H-[dH][dF][dW][dS][dW][dT][dS][dL][dS][dM][dT][dR]-NH2; SMILES CSCC[C@@H](NC(=O)[C@@H](CO)NC(=O)[C@@H](CC(C)C)NC(=O)[C@@H](CO)NC(=O)[C@H](NC(=O)[C@@H](Cc1c[nH]c2ccccc12)NC(=O)[C@@H](CO)NC(=O)[C@@H](Cc1c[nH]c2ccccc12)NC(=O)[C@@H](Cc1ccccc1)NC(=O)[C@H](N)Cc1c[nH]cn1)[C@H](C)O)C(=O)N[C@@H](C(=O)N[C@H](CCCNC(=N)N)C(N)=O)[C@H](C)O) [Mosd8]", "Difference in signal strength between Aβ1-42 monomers (100%) and Aβ1-42 oligomers and fibrils": 68.616}, {"sequence": "HLSWYWEKYLTS (H-[dH][dL][dS][dW][dY][dW][dE][dK][dY][dL][dT][dS]-NH2; SMILES CC(C)C[C@@H](NC(=O)[C@H](N)Cc1c[nH]cn1)C(=O)N[C@H](CO)C(=O)N[C@H](Cc1c[nH]c2ccccc12)C(=O)N[C@H](Cc1ccc(O)cc1)C(=O)N[C@H](Cc1c[nH]c2ccccc12)C(=O)N[C@H](CCC(=O)O)C(=O)N[C@H](CCCCN)C(=O)N[C@H](Cc1ccc(O)cc1)C(=O)N[C@H](CC(C)C)C(=O)N[C@@H](C(=O)N[C@H](CO)C(N)=O)[C@H](C)O) [Mosd9]", "Difference in signal strength between Aβ1-42 monomers (100%) and Aβ1-42 oligomers and fibrils": 68.016}, {"sequence": "DRSKGDHRITQM (H-[dD][dR][dS][dK]G[dD][dH][dR][dI][dT][dQ][dM]-NH2; SMILES CC[C@@H](C)[C@@H](NC(=O)[C@@H](CCCNC(=N)N)NC(=O)[C@@H](Cc1c[nH]cn1)NC(=O)[C@@H](CC(=O)O)NC(=O)CNC(=O)[C@@H](CCCCN)NC(=O)[C@@H](CO)NC(=O)[C@@H](CCCNC(=N)N)NC(=O)[C@H](N)CC(=O)O)C(=O)N[C@@H](C(=O)N[C@H](CCC(N)=O)C(=O)N[C@H](CCSC)C(N)=O)[C@H](C)O) [Mosd18]", "Difference in signal strength between Aβ1-42 monomers (100%) and Aβ1-42 oligomers and fibrils": 49.181}, {"sequence": "FSWSMVMPWPTA (H-[dF][dS][dW][dS][dM][dV][dM][dP][dW][dP][dT][dA]-NH2; SMILES CSCC[C@@H](NC(=O)[C@@H](CO)NC(=O)[C@@H](Cc1c[nH]c2ccccc12)NC(=O)[C@@H](CO)NC(=O)[C@H](N)Cc1ccccc1)C(=O)N[C@@H](C(=O)N[C@H](CCSC)C(=O)N1CCC[C@@H]1C(=O)N[C@H](Cc1c[nH]c2ccccc12)C(=O)N1CCC[C@@H]1C(=O)N[C@@H](C(=O)N[C@H](C)C(N)=O)[C@H](C)O)C(C)C) [Mosd21]", "Difference in signal strength between Aβ1-42 monomers (100%) and Aβ1-42 oligomers and fibrils": 46.030}, {"sequence": "STLHFYTAFLNK (H-[dS][dT][dL][dH][dF][dY][dT][dA][dF][dL][dN][dK]-NH2; SMILES CC(C)C[C@@H](NC(=O)[C@@H](Cc1ccccc1)NC(=O)[C@@H](C)NC(=O)[C@H](NC(=O)[C@@H](Cc1ccc(O)cc1)NC(=O)[C@@H](Cc1ccccc1)NC(=O)[C@@H](Cc1c[nH]cn1)NC(=O)[C@@H](CC(C)C)NC(=O)[C@H](NC(=O)[C@H](N)CO)[C@H](C)O)[C@H](C)O)C(=O)N[C@H](CC(N)=O)C(=O)N[C@H](CCCCN)C(N)=O) [Mosd6]", "Difference in signal strength between Aβ1-42 monomers (100%) and Aβ1-42 oligomers and fibrils": 67.981}, {"sequence": "YSFHFEMNMGNY (H-[dY][dS][dF][dH][dF][dE][dM][dN][dM]G[dN][dY]-NH2; SMILES CSCC[C@@H](NC(=O)[C@@H](CC(N)=O)NC(=O)[C@@H](CCSC)NC(=O)[C@@H](CCC(=O)O)NC(=O)[C@@H](Cc1ccccc1)NC(=O)[C@@H](Cc1c[nH]cn1)NC(=O)[C@@H](Cc1ccccc1)NC(=O)[C@@H](CO)NC(=O)[C@H](N)Cc1ccc(O)cc1)C(=O)NCC(=O)N[C@H](CC(N)=O)C(=O)N[C@H](Cc1ccc(O)cc1)C(N)=O) [Mosd13]", "Difference in signal strength between Aβ1-42 monomers (100%) and Aβ1-42 oligomers and fibrils": 57.246}, {"sequence": "HNWSWEWWYNPN (H-[dH][dN][dW][dS][dW][dE][dW][dW][dY][dN][dP][dN]-NH2; SMILES NC(=O)C[C@@H](NC(=O)[C@H]1CCCN1C(=O)[C@@H](CC(N)=O)NC(=O)[C@@H](Cc1ccc(O)cc1)NC(=O)[C@@H](Cc1c[nH]c2ccccc12)NC(=O)[C@@H](Cc1c[nH]c2ccccc12)NC(=O)[C@@H](CCC(=O)O)NC(=O)[C@@H](Cc1c[nH]c2ccccc12)NC(=O)[C@@H](CO)NC(=O)[C@@H](Cc1c[nH]c2ccccc12)NC(=O)[C@@H](CC(N)=O)NC(=O)[C@H](N)Cc1c[nH]cn1)C(N)=O) [Mosd5]", "Difference in signal strength between Aβ1-42 monomers (100%) and Aβ1-42 oligomers and fibrils": 62.729}, {"sequence": "ERSQWGHRDPQS (H-[dE][dR][dS][dQ][dW]G[dH][dR][dD][dP][dQ][dS]-NH2; SMILES N=C(N)NCCC[C@@H](NC(=O)[C@H](N)CCC(=O)O)C(=O)N[C@H](CO)C(=O)N[C@H](CCC(N)=O)C(=O)N[C@H](Cc1c[nH]c2ccccc12)C(=O)NCC(=O)N[C@H](Cc1c[nH]cn1)C(=O)N[C@H](CCCNC(=N)N)C(=O)N[C@H](CC(=O)O)C(=O)N1CCC[C@@H]1C(=O)N[C@H](CCC(N)=O)C(=O)N[C@H](CO)C(N)=O) [Mosd17]", "Difference in signal strength between Aβ1-42 monomers (100%) and Aβ1-42 oligomers and fibrils": 54.492}]}]}
